Measured values from patent publication US9150634B2, “Epitopes of the human PDGF receptor able to bind human auto-antibodies, antibodies and uses thereof” (priority 2010, dated 2015).

Tests used:
PDGFR alpha [1] = target: T1, PDGFR alpha (Homo sapiens, UniProt P16234); experiment: optical biosensor binding to immobilized His-tagged PDGFR alpha; design: cDNA encoding aminoacids 1-834 of human PDGFR alpha; made in house
Protocol: A detailed characterization of rHumaab interaction with human PDGFR alpha was performed on an optical biosensor, using as a molecular bait a homemade truncated conformer of this receptor containing the complete extracellular and transmembrane regions joined to a poly-histidine tail (HIS tag) replacing part of the intracellular domain, and serving both as an anchor to the biosensor surface and as a spacer. Preservation of proper folding of the immobilized receptor into a naïve-like conformation was verified by monitoring the interaction with its natural binding partner (PDGF-BB) and with two mouse monoclonal antibodies specific for conformational PDGFR alpha epitopes (FIG. 6a). Using this approach, both kinetics and equilibrium parameters of the interaction between PDGF-BB, each rHumaab and PDGFR alpha were determined. […] Additionally, the analysis of association and dissociation rate constants for soluble ligands binding to PDGFR alpha, further defined the mechanistic properties of the macromolecular recognition process. […]
cDNA encoding aminoacids 1-834 of human PDGFR alpha was inserted in the pcDNA V5 HIS A vector (Invitrogen), in order to fuse the COOH— terminal of the protein with a 6× histidine tag. […] Presence of a single His-tagged PDGFR alpha product in eluted fractions was evaluated by immunoblotting with specific anti-PDGFR alpha (R&D Biosystems) and anti-histidine (Sigma-Aldrich) monoclonal antibodies. […]
[…] For binding assays, monophasic time courses were always reported upon addition of soluble rHumaab (the validity of the monophasic model in fitting each time course was assessed according to a standard F-test procedure, with the biphasic model being statistically nonsignificant at 95% confidence) (Bevington P R and Robinson D K. McGraw-Hill Book Company, New York. 1992).
Target sequence in this assay (P16234 24-834): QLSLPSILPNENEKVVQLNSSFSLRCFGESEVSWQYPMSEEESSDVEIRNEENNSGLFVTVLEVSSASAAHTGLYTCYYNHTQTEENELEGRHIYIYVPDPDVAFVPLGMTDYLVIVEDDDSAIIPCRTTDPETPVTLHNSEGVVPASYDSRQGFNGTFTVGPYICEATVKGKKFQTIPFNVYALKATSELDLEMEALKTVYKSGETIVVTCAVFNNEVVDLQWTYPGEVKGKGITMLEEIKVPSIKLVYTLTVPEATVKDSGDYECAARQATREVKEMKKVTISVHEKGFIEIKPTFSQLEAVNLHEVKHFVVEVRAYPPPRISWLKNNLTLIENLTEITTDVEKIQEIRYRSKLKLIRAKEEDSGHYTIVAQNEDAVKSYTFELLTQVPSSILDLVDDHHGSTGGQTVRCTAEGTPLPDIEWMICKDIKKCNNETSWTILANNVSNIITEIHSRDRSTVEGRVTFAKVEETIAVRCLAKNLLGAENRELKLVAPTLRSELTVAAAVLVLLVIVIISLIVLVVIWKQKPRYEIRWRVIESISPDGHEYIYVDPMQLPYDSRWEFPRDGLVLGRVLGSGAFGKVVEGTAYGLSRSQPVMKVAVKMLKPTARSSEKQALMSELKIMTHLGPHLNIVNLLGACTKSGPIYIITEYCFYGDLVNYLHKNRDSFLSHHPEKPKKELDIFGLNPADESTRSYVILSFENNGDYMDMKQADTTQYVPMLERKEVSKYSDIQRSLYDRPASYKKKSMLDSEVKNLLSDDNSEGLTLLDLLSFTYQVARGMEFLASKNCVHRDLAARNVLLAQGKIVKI

normal human fibroblasts [2] = experiment: type I collagen gene transcription in normal human fibroblasts (real-time PCR); assay type: cell-based; conditions: time course
Excerpt: (§1) FIG. 5 Characterization of recombinant human monoclonal auto-antibodies (rHumaab). IgG were affinity-purified from serum-free supernatants of CHO cells stably transfected with each of the four rHumaab constructs and used (10 micrograms/ml) in four independent assays. Each result is representative of three experiments performed under the same conditions. (a) Vk13B8, Vk16F4 and Vlambda16F4, but not Vlambda13B8 rHumaab, immunoprecipitated PDGFR alpha from normal human fibroblast extracts. A mouse monoclonal anti-PDGFR alpha antibody was used as positive control. Immunoprecipitated PDGFR alpha was visualized by immunoblotting with rabbit anti-PDGFR alpha antibody-HRP. (b-c) Vk16F4 and Vlambda16F4, but not Vk13B8 and Vlambda13B8 rHumaab, induced (b) ROS production and (c) increased ERK phosphorylation (p-ERK) in normal human fibroblasts after 15 minutes incubation. […] Intracellular ROS production was measured by DCFH-DA fluorescence. […] Type I A1 and A2 collagen gene expression was measured by quantitative real-time PCR in RNA extracted from fibroblasts at baseline and after stimulation with the indicated reagents. […] Mouse collagen gene expression was measured by quantitative real-time PCR in RNA extracted from F alpha and F−/− fibroblasts at baseline and after 1 hour stimulation with Vk16F4 rHumaab or human PDGF-BB. […]

normal human fibroblasts [3] = experiment: ERK phosphorylation (p-ERK immunoblot) in normal human fibroblasts; assay type: cell-based; conditions: 10 micrograms/ml, 15 minutes incubation
Excerpt: as §1

normal human fibroblasts [4] = experiment: ROS production in normal human fibroblasts (DCFH-DA fluorescence); assay type: cell-based; conditions: 10 micrograms/ml, 15 minutes incubation
Excerpt: as §1

PDGFR alpha [5] = target: T1, PDGFR alpha; experiment: immunoprecipitation and immunoblotting of PDGFR alpha from human fibroblast extracts; assay type: binding; design: 100 micrograms of total protein from human fibroblast extract; endogenous in cells; host or cells: normal human (skin) fibroblasts, total cell extract; conditions: normal human fibroblast extracts; 10 micrograms/ml
Protocol: Immunoprecipitating antibodies were individually incubated for 4 hours at 4° C. with an aliquot of 100 micrograms of total protein from human fibroblast extract. The reaction mixture was adjusted to a final volume of 500 microliters with assay buffer (PBS, 1% Nonidet P-40, 0.5% sodium deoxycholate, 1 mM PMSF). Rabbit anti-PDGFR alpha antibody and rabbit IgG (Santa Cruz), IgG purified from EBV-transformed B cell culture supernatants and rHumaab were used at 10 micrograms/ml, total IgG purified from serum of SSc patients and healthy subjects at 200 micrograms/ml. Then, 20 microliters agarose-Protein A/G (Santa Cruz) were added to the antibody-cell extract mixture and incubated overnight under rotation at 4° C. After centrifugation and extensive washing, immunoprecipitates were suspended in 20 microliters of loading buffer (150 mM Tris-HCl, pH 6.8/6% SDS/0.3% bromophenol blue/30% glycerol) and heated to 100° C. for 10 minutes prior to immunoblotting with a commercial rabbit anti-PDGFR alpha antibody (Santa Cruz).
Target sequence in this assay (P16234 24-1089): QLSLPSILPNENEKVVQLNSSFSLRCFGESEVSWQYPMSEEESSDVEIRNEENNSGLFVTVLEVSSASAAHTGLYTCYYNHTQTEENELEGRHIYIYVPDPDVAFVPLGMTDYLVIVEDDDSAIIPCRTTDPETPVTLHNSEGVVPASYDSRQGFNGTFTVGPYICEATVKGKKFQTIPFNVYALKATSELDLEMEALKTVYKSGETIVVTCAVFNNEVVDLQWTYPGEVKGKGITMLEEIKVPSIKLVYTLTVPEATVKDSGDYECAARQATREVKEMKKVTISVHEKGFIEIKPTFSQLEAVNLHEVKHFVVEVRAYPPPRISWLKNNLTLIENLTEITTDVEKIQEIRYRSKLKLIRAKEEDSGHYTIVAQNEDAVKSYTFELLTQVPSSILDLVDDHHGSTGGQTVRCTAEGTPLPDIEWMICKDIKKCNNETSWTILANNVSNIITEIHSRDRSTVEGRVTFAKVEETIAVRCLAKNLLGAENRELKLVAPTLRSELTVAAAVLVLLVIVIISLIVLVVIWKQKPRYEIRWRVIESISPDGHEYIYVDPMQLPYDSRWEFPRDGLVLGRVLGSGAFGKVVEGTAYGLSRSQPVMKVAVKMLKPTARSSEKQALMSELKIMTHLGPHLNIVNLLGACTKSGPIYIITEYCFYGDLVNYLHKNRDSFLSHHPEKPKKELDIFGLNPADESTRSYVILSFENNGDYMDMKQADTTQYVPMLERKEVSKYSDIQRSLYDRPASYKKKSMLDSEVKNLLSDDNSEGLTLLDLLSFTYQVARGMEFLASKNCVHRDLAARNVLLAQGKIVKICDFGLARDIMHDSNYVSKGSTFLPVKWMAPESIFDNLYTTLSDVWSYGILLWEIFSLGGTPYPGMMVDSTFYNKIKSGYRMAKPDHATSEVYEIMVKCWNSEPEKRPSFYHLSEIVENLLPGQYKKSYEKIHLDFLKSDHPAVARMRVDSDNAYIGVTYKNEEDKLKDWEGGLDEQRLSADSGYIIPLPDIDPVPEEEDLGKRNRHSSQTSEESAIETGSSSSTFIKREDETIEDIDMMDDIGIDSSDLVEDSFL

PDGFR alpha [6] = target: T1, PDGFR alpha; experiment: competitive binding on optical biosensor; design: cDNA encoding aminoacids 1-834 of human PDGFR alpha; made in house; conditions: immobilized His-tagged PDGFR alpha saturated with molar excess of PDGF-BB
Protocol: To draw a map of the PDGFR alpha epitopes recognized by the rHumaab, competitive binding experiments were performed on the optical biosensor platform, where the surface of immobilized HIS-tagged PDGFR alpha was saturated with PDGF-BB prior to the addition of each rHumaab.
Binding assays were performed on a IAsys plus biosensor. The carboxylate surface was equilibrated with PBS buffer, and activated by addition of an equimolar mixture of N-hydroxysuccinimide and N-ethyl-N-(dimethylaminopropyl) carbodiimide hydrochloride following the standard procedure (Davies, R J et al. Academic Press: San Diego, 1994).
Next, His-tagged PDGFR alpha (200 micrograms/mL) was incubated over the surface for 20 min, and free carboxylic sites on the sensor surface were deactivated by injection of 1M ethanolamine, pH 8.5. Finally, the surface was re-equilibrated with PBS. rHumaab and PDGF-BB were added at different concentrations, and association kinetics were followed up to equilibrium, whereas dissociation steps and surface regeneration were performed by addition of fresh buffer, each time assessing the baseline recovery prior to any new addition of ligand. Kinetic and equilibrium parameters were derived from global fit of raw data both to mono- and bi-exponential models (Cuccioloni M et al. J Lipid Res 2011; 52 (5): 897-907).
Target sequence in this assay (P16234 24-834): as the sequence (P16234 24-834) above

kass (association rate constant) (PDGFR alpha [1])	immunoprecipitation of PDGFR alpha (PDGFR alpha [5])	kdiss (dissociation rate constant) (PDGFR alpha [1])	binding to PDGFR alpha pre-saturated with PDGF-BB (PDGFR alpha [6])	Molecule	duration of collagen gene stimulation (normal human fibroblasts [2])	ERK phosphorylation (p-ERK) (normal human fibroblasts [3])	ROS production (normal human fibroblasts [4])
3e+07 M⁻¹ s⁻¹				PDGF-BB: human PDGF-BB, natural binding partner (physiological ligand) of PDGFR alpha [reference compound]	up to 6 hours		
	specifically bound	0.003 s⁻¹		Vlambda16F4: recombinant human monoclonal IgG1, VH PAM paired with Vlambda16F4 VL (SEQ ID No. 7) (antibody, V domains shown) VH: GLVKPLETLSLTCSVSGGSVSDGSYFWNWIRQPPGKGLEWIGYAYSRGTTNYSPSLKGRITISVDKSKNQISLKLTSVTPADTAVYYCARDSFEIWGQGTMVTV VL: QSALTQPASVSGSPGQSITISCTGTSSDVGGYNYVSWYQHHPGKAPKLMIYEVSHRPSGVSNRFSGSKSGNTASLTISGLQAEDEADYYCSSYTSSSHVVFGGGTKLTVL		increased	induced
	specifically bound	0.035 s⁻¹	bound	Vk13B8: recombinant human monoclonal IgG1, VH PAM (SEQ ID No. 3) paired with Vk13B8 VL (SEQ ID No. 4); non-agonistic anti-PDGFR alpha (antibody, listed as Homo sapiens, V domains shown) VH: GLVKPLETLSLTCSVSGGSVSDGSYFWNWIRQPPGKGLEWIGYAYSRGTTNYSPSLKGRITISVDKSKNQISLKLTSVTPADTAVYYCARDSFEIWGQGTMVTV VL: DIQMTQSPSSLSASVGDRVTITCRASQGISNYLAWFQQKPGKAPKSLIYAASSLQSGVPSKFSGSGSGTDFTLTISSLQPEDFATYYCQQYNSFPYTFGQGTKLEIK			
